Patent JP2011160681A (dated 2011)

Experiments:
Assay in all cases: ELISA, antigen coated on the plate
HAc peptide = HAc peptide (Influenza A virus)
Bovine serum albumin = Bovine serum albumin (bovine, UniProt P02769 25-607)
HSA = HSA (UniProt P02768 25-609)
Human hemoglobin = Human hemoglobin (human, UniProt P69905 2-142; P68871 2-147)
TP41-1 peptide = biological target: T1, TP41-1 peptide (HIV-1)
T1 peptide: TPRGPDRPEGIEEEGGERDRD

Sequence of HSA (P02768 25-609): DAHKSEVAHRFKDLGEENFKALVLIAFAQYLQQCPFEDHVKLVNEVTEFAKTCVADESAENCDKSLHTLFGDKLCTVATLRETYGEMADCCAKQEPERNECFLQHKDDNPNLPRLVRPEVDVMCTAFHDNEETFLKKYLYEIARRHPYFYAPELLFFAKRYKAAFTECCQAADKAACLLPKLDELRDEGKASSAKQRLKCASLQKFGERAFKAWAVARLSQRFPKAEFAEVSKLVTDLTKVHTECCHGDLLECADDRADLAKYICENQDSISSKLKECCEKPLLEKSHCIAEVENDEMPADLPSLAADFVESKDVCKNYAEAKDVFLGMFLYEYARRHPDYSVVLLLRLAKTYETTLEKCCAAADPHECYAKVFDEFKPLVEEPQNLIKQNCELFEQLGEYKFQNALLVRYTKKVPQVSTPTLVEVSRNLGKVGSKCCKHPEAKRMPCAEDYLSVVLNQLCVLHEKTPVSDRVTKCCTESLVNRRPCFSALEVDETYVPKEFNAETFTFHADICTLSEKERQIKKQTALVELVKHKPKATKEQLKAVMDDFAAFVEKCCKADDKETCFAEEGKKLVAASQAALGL
Sequence of Bovine serum albumin (P02769 25-607 limits assumed): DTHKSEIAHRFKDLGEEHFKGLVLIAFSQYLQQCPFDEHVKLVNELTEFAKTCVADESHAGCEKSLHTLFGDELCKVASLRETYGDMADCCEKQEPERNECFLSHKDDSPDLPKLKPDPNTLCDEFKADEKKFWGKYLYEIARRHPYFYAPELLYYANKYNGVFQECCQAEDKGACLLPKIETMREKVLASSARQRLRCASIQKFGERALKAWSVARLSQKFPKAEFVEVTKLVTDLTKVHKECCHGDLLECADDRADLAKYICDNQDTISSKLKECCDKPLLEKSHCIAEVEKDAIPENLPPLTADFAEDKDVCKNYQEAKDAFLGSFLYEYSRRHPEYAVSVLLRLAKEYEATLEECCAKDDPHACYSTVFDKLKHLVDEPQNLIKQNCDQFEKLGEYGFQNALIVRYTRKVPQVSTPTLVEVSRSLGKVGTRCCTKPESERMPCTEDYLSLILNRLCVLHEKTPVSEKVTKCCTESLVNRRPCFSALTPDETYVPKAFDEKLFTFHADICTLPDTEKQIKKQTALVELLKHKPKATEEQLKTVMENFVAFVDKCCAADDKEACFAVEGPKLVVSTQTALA
Sequence of Human hemoglobin (P69905 2-142 limits assumed, chain 1 of 2): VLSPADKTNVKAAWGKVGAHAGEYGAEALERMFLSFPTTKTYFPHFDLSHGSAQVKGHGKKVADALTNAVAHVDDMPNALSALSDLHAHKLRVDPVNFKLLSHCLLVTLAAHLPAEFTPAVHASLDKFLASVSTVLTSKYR
Sequence of Human hemoglobin (P68871 2-147 limits assumed, chain 2 of 2): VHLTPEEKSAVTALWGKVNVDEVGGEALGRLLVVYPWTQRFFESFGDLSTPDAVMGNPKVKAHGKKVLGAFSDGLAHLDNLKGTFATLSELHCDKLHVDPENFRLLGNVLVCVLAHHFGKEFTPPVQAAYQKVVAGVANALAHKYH

B1: InfA-15 monoclonal antibody (antibody, V domains shown)
VH: QVQLKESGPGLVAPSQSLSITCTVSGFSLTKSGLHWVRQPPGKGLEWLGVIWAGGSTDYNSALTSRLTITKDNSKSQIFFRLNSLQTADTAMYYCVRSTFLYAMDFWGQGTSVTVS
VL: DAVMTQTPLSLPVSLGDQASISCRSSPSLEHSNGNTYLNWYLQKPGQSPQLLIYRVSNRFSGVPDRFSGSGSGTDFTLKISRVEAEDLGVYFCLQVTHVPPTFGGGTKLEIKR
HAc peptide
  binding result: no binding (tested: 4 μg/ml (coated antigen))
Bovine serum albumin
  binding result: no binding (tested: 4 μg/ml (coated antigen))
HSA
  binding result: no binding (tested: 4 μg/ml (coated antigen))
Human hemoglobin
  binding result: no binding (tested: 4 μg/ml (coated antigen))
TP41-1 peptide
  binding result: no binding (tested: 4 μg/ml (coated antigen))
